# According to US20220409696A1, “Heparin-Associated Polypeptides and Uses Thereof” (Juvena Therapeutics, Inc., priority 2021, published 2022):
# B1: BMP7: factor BMP7 added at 50 ng/mL to DM1 human myoblasts (protein, UniProt P18075 293-431, looked up)
# Bone morphogenetic protein 7: STGSKQRSQNRSKTPKNQEALRMANVAENSSSDQRQACKKHELYVSFRDLGWQDWIIAPEGYAAYYCEGECAFPLNSYMNATNHAIVQTLVHFINPETVPKPCCAPTQLNAISVLYFDDSSNVILKKYRNMVVRACGCH
# Test system: DM1 human myoblast
# Assay: Gene expression fold change in DM1 human myoblast
# Type: cell-based
# Settings: 48 h; BMP7 50 ng/mL, Butyrate 100 nM, IGF2 200 ng/mL
# Method: Myoblasts were cultured 48 h in the presence of factors (BMP7 50 ng/mL, Butyrate 100 nM, IGF2 200 ng/mL).
# Myoblasts were cultured 96 h in the presence of factors (IGF2 200 ng/mL). […] Myoblasts were cultured 48 h in the presence of factors (IGF2 200 ng/mL).
# RNA was isolated from each well (RNeasy Mini Kit, Qiagen) and cDNA was obtained by reverse-transcription (High Capacity Reverse Transcription Kit, Thermo Fisher Scientific). Real-time quantitative PCR was performed using QuantStudio3 (Thermo Fisher).
# IGF2 was tested individually for its ability to promote proliferation and/or fusion of human muscle progenitor cells from an individual with myotonic dystrophy type 1 (hMD)—a muscular dystrophy caused by mutations in the DMPK1 gene. The effect of IGF2 on myogenic activity was assayed in biological triplicate across a range of concentrations centered around expected physiological levels by adding each factor to hMD myoblasts for 72 hours with daily media changes (DMEM+2% horse serum) and a second pulse of factors at the first media change. After 72 or 96 hours, cells were pulsed for 2-5 hours with EdU (30 uM), ethanol fixed, stained with Hoescht 3342, immunostained for proliferation—as measured by the percent of cells staining positive for EdU (% EdU)-, and immunostained for differentiation—as measured by the increase in cellular area staining positive for embryonic myosin heavy chain (% eMyHC) relative to the negative controls, which received media and vehicle only. Wells were imaged on a Keyence BZ-100 at 4×, the images quantified in Cell Profiler, and the statistics were computed in R. Additionally, RNA was extracted from myoblast and select transcript abundances quantified by qPCR.
molecule,measurement,value
B1,MYF5 myogenic gene expression fold change compared to FM (vehicle),0.709
same,MYODI myogenic gene expression fold change compared to FM (vehicle),0.709
same,MYOG myogenic gene expression fold change compared to FM (vehicle),0.361
